Data published in patent publication US6645733B1, “Fluorescent intensity method for assaying binding between proteins or peptides” (Ingeneus Corporation, priority 1999, dated 2003).
No end group written: not given here.

Molecular target: T1, human AT1 receptor (Homo sapiens, UniProt P30556)
T1 construct: purchased NEN Life Science Products Inc., Boston, Mass; host or cells: Chinese hamster ovary (CHO) cells, purified membrane preparation
T1 sequence (P30556 1-359): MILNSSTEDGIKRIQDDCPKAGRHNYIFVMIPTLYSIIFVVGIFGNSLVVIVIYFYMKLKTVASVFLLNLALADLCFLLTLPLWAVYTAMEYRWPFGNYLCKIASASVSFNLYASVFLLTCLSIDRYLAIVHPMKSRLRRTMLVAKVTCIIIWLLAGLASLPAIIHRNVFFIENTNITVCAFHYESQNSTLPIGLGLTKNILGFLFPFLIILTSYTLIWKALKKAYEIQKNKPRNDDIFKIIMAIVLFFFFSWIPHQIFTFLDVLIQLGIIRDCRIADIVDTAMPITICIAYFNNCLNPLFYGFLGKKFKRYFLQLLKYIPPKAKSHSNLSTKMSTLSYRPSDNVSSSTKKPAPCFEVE
Experiment: Competition binding experiment: displacement of wildtype Flu-AII from AT1 receptor by unlabeled ligand
Conditions: all twelve concentrations 1 nM to 300 μM, 10 nM Flu-AII, 0.02 units AT1 receptor (data not shown)

MLGFFQQPKPR [substance P]
displacement of Flu-AII binding to AT1 receptor: unable to displace
